Measured values from article PMC8217331 (Neuron, 2021).

B1: Rapsn-EGFP, purified (natural protein, UniProt P12672 1-412, looked up)
chain: MGQDQTKQQIEKGLQLYQSNQTEKALQVWMKVLEKGSDLVGRFRVLGCLVTAHSEMGRYKEMLKFAVVQIDTARGLEDADFLLESYLNLARSNEKLCEFHKTISYCKTCLGLPGTRAGAQLGGQVSLSMGNAFLGLSLFQKALESFEKALRYAHNNDDTMLECRVCCSLGSFYAQVKDYEKALFFPCKAAELVNDYGKGWSLKYRAMSQYHMAVAYRLLGHLGSAMECCEESMKIALQHGDRPLQALCLLCFADIHRSRGDLETAFPRYDSAMSIMTEIGNRLGQVHVLLGVAKCWMARKVQDKALDAIEKAQDLAEEVGNKLSQLKLHCLSESIYRSKGLQRELRTHVVRFHECVEETELYCGLCGESIGERNSRLQALPCSHIFHLRCLQNNGTRSCPNCRRSSMKPGFV
B2: GST-β-dystroglycan (aa 773Y-893P) (domain or fragment, UniProt Q62165 773-893, looked up)
chain: YRKKRKGKLTLEDQATFIKKGVPIIFADELDDSKPPPSSSMPLILQEEKAPLPPPEYPNQSMPETTPLNQDTVGEYTPLRDEDPNAPPYQPPPPFTAPMEGKGSRPKNMTPYRSPPPYVPP
modifications: CF555 label (Mix-n-Stain CF555)
B3: GST-AChR-α (loop between 3rd and 4th transmembrane domains) (domain or fragment, UniProt P04756 317-428, looked up)
chain: NTHHRSPSTHIMPEWVRKVFIDTIPNIMFFSTMKRPSRDKQEKRIFTEDIDISDISGKPGPPPMGFHSPLIKHPEVKSAIEGVKYIAETMKSDQESNNAAEEWKYVAMVMDH
modifications: CF555 label (Mix-n-Stain CF555)
B4: GST-AChR-β (loop between 3rd and 4th transmembrane domains) (domain or fragment, UniProt P09690 333-469, looked up)
chain: HHRSPHTHQMPFWVRQIFIHKLPPYLGLKRPKPERDQLPEPHHSLSPRSGWGRGTDEYFIRKPPSDFLFPKLNRFQPESSAPDLRRFIDGPTRAVGLPQELREVISSISYMARQLQEQEDHDALKEDWQFVAMVVDR
modifications: CF555 label (Mix-n-Stain CF555)
B5: GST-MACF1 (aa 1M-293I) (domain or fragment, UniProt Q9QXZ0 1-293, looked up)
chain: MSSSDEETLSERSCRSERSCRSERSYRSERSGSLSPCPPGDTLPWNLPLHEQKKRKSQDSVLDPAERAVVRVADERDRVQKKTFTKWVNKHLMKVRKHINDLYEDLRDGHNLISLLEVLSGIKLPREKGRMRFHRLQNVQIALDFLKQRQVKLVNIRNDDITDGNPKLTLGLIWTIILHFQISDIYISGESGDMSAKEKLLLWTQKVTAGYTGVKCTNFSSCWSDGKMFNALIHRYRPDLVDMERVQVQSNRENLEQAFEVAERLGVTRLLDAEDVDVPSPDEKSVITYVSSI
modifications: CF555 label (Mix-n-Stain CF555)

Tests used:
[1] = molecular target: α-actinin2 (aa 1M-894L), purified ( (the printed UniProt entry …, UniProt Q9JI91 1-894, CF555 label (Mix-n-Stain CF555))); experiment: co-condensation into droplets
Rapsn-EGFP, purified = molecular target: B1; experiment: co-condensation into droplets

α-actinin2 (aa 1M-894L), purified (, sequence (Q9JI91 whole entry): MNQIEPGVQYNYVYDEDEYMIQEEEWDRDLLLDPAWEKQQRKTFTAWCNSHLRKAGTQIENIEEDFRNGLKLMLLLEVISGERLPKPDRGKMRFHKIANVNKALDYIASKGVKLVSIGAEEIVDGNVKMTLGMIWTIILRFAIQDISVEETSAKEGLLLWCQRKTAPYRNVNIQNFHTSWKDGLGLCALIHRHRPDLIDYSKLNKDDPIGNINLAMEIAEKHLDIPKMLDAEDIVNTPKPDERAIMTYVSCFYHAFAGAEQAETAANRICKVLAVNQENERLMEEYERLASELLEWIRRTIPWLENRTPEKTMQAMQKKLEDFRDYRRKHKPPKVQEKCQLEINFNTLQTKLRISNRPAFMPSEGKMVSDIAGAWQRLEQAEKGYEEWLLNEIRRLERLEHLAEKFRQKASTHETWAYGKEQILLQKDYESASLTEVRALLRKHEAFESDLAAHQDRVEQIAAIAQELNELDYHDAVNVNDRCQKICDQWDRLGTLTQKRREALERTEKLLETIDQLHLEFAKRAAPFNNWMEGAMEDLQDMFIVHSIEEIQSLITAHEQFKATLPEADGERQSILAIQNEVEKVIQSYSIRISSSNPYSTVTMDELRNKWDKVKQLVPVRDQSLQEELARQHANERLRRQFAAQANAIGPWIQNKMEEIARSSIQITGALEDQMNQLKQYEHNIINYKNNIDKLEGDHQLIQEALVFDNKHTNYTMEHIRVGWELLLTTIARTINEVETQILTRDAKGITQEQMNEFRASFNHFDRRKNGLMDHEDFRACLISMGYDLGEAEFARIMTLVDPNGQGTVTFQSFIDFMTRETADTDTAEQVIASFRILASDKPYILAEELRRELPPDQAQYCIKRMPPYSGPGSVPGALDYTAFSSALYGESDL

Binder	binding result [1]	binding result (Rapsn-EGFP, purified)
B1	binds	–
B2	–	binds
B3	–	binds
B4	–	binds
B5	–	binds
